Source: IntAct's records for PubMed 31515488

B1: Septin-12 (Homo sapiens), Q8IYM1 (parent)
chain: MDPLRRSPSPCLSSQPSSPSTPPCEMLGPVGIEAVLDQLKIKAMKMGFEFNIMVVGQSGLGKSTMVNTLFKSKVWKSNPPGLGVPTPQTLQLHSLTHVIEEKGVKLKLTVTDTPGFGDQINNDNCWDPILGYINEQYEQYLQEEILITRQRHIPDTRVHCCVYFVPPTGHCLRPLDIEFLQRLCRTVNVVPVIARADSLTMEEREAFRRRIQQNLRTHCIDVYPQMCFDEDINDKILNSKLRDRIPFAVVGADQEHLVNGRCVLGRKTKWGIIEVENMAHCEFPLLRDLLIRSHLQDLKDITHNIHYENYRVIRLNESHLLPRGPGWVNLAPASPGQLTTPRTFKVCRGAHDDSDDEF
partner: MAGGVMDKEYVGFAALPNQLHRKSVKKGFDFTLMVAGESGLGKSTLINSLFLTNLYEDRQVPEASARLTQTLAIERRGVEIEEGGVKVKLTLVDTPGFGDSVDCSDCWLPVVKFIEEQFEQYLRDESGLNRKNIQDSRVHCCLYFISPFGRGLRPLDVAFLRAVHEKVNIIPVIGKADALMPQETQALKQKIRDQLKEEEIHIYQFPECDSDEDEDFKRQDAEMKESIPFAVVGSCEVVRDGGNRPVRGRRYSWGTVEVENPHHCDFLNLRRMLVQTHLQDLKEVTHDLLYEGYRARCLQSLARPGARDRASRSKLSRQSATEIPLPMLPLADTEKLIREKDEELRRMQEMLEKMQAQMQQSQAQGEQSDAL
B2: RNA-binding protein 15 (Homo sapiens), Q96T37-3 (parent)
chain: MRTAGRDPVPRRSPRWRRAVPLCETSAGRRVTQLRGDDLRRPATMKGKERSPVKAKRSRGGEDSTSRGERSKKLGGSGGSNGSSSGKTDSGGGSRRSLHLDKSSSRGGSREYDTGGGSSSSRLHSYSSPSTKNSSGGGESRSSSRGGGGESRSSGAASSAPGGGDGAEYKTLKISELGSQLSDEAVEDGLFHEFKRFGDVSVKISHLSGSGSGDERVAFVNFRRPEDARAAKHARGRLVLYDRPLKIEAVYVSRRRSRSPLDKDTYPPSASVVGASVGGHRHPPGGGGGQRSLSPGGAALGYRDYRLQQLALGRLPPPPPPPLPRDLERERDYPFYERVRPAYSLEPRVGAGAGAAPFREVDEISPEDDQRANRTLFLGNLDITVTESDLRRAFDRFGVITEVDIKRPSRGQTSTYGFLKFENLDMSHRAKLAMSGKIIIRNPIKIGYGKATPTTRLWVGGLGPWVPLAALAREFDRFGTIRTIDYRKGDSWAYIQYESLDAAHAAWTHMRGFPLGGPDRRLRVDFADTEHRYQQQYLQPLPLTHYELVTDAFGHRAPDPLRGARDRTPPLLYRDRDRDLYPDSDWVPPPPPVRERSTRTAATSVPAYEPLDSLDRRRDGWSLDRDRGDRDLPSSRDQPRKRRLPEESGGRHLDRSPESDRPRKRHCAPSPDRSPELSSSRDRYNSDNDRSSRLLLERPSPIRDRRGSLEKSQGDKRDRKNSASAERDRKHRTTAPTEGKSPLKKEDRSDGSAPSTSTASSKLKSPSQKQDGGTAPVASASPKLCLAWQGMLLLKNSNFPSNMHLLQGDLQVASSLLVEGSTGGKVAQLKITQRLRLDQPKLDEVTRRIKVAGPNGYAILLAVPGSSDSRSSSSSAASDTATSTQRPLRNLVSYLKQKQAAGVISLPVGGNKDKENTGVLHAFPPCEFSQQFLDSPAKALAKSEEDYLVMIIVRAKLVEQRMKIWNSKL
B3: Barrier-to-autointegration factor (Homo sapiens), O75531 (parent)
chain: MTTSQKHRDFVAEPMGEKPVGSLAGIGEVLGKKLEERGFDKAYVVLGQFLVLKKDEDLFREWLKDTCGANAKQSRDCFGCLREWCDAFL
partner: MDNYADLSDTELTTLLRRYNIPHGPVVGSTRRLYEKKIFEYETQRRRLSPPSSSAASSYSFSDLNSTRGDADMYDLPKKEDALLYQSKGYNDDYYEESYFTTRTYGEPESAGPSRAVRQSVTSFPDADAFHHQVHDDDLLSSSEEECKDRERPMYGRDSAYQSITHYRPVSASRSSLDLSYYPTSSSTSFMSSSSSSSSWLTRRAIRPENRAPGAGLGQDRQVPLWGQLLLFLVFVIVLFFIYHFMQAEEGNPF
B4: Keratin, type II cytoskeletal 6A (Homo sapiens), P02538 (parent)
chain: MASTSTTIRSHSSSRRGFSANSARLPGVSRSGFSSVSVSRSRGSGGLGGACGGAGFGSRSLYGLGGSKRISIGGGSCAISGGYGSRAGGSYGFGGAGSGFGFGGGAGIGFGLGGGAGLAGGFGGPGFPVCPPGGIQEVTVNQSLLTPLNLQIDPTIQRVRAEEREQIKTLNNKFASFIDKVRFLEQQNKVLETKWTLLQEQGTKTVRQNLEPLFEQYINNLRRQLDSIVGERGRLDSELRGMQDLVEDFKNKYEDEINKRTAAENEFVTLKKDVDAAYMNKVELQAKADTLTDEINFLRALYDAELSQMQTHISDTSVVLSMDNNRNLDLDSIIAEVKAQYEEIAQRSRAEAESWYQTKYEELQVTAGRHGDDLRNTKQEIAEINRMIQRLRSEIDHVKKQCANLQAAIADAEQRGEMALKDAKNKLEGLEDALQKAKQDLARLLKEYQELMNVKLALDVEIATYRKLLEGEECRLNGEGVGQVNISVVQSTVSSGYGGASGVGSGLGLGGGSSYSYGSGLGVGGGFSSSSGRAIGGGLSSVGGGSSTIKYTTTSSSSRKSYKH
partner: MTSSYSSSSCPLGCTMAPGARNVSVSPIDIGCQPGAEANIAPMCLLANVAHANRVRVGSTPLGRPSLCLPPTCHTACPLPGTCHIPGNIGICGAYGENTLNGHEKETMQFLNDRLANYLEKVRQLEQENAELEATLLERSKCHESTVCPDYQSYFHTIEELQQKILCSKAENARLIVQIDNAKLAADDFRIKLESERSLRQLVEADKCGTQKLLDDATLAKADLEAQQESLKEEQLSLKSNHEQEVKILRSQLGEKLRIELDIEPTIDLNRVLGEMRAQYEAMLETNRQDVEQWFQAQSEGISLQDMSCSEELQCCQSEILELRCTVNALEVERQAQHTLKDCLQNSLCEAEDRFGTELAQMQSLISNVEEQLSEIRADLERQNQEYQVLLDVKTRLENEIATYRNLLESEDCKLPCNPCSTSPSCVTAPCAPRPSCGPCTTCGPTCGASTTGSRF

Variants of: B1
Details: with sept1_human SEPTIN1, Q8WYJ6

effect of a mutation on the interaction	Variant
disrupting interaction strength	MDPLRRSPSPCLSSQPSSPSTPPCEMLGPVGIEAVLDQLKIKAMKMGFEFNIMVVGQSGLGKSTMVNTLFKSKVWKSNPPGLGVPTPQTLQLHSLTHVIEEKGVKLKLTVTDTPGFGDQINNDNCWDPILGYINEQYEQYLQEEILITRQRHIPDTRVHCCVYFVPPTGHCLRPLDIEFLQRLCRTVNVVPVIARADSLTMEEREAFRRRIQQNLRTHCIDVYPQMCFDEDINDKILNSKLRDRIPFAVVGADQEHLVNGRCVLGRKTKWGIIEVENMAHCEFPLLRDLLIRSHLQDLKDITHNIHYENYCVIRLNESHLLPRGPGWVNLAPASPGQLTTPRTFKVCRGAHDDSDDEF [R311C]
disrupting interaction strength	MDPLRRSPSPCLSSQPSSPSTPPCEMLGPVGIEAVLDQLKIKAMKMGFEFNIMVVGQSGLGKSTMVNTLFKSKVWKSNPPGLGVPTPQTLQLHSLTHVIEEKGVKLKLTVTDTPGFGDQINNDNCWDPILGYINEQYEQYLQEEILITRQRHIPDTRVHCCVYFVPPTGHCLRPLDIEFLQRLCRTVNVVPVIARADSLTMEEREAFRRRIQQNLRTHCIDVYPQMCFDEDINDKILNSKLRDRIPFAVVGADQEHLVNGRCDLGRKTKWGIIEVENMAHCEFPLLRDLLIRSHLQDLKDITHNIHYENYRVIRLNESHLLPRGPGWVNLAPASPGQLTTPRTFKVCRGAHDDSDDEF [V263D]
disrupting interaction strength	MDPLRRSPSPCLSSQPSSPSTPPCEMLGPVGIEAVLDQLKIKAMKMGFEFNIMVVGQSGLGKSTMVNTLFKSKVWKSNPPGLGVPTPQTLQLHSLTHVIEEKGVKLKLTVTDTPGFGDQINNDNCWDPILGYINEQYEQYLQEEILITRQRHIPDTRVHCCVYFVPPTGHCLRPLDIEFLQRLCRTVNVVPVIARADSLTMEEREAFRRRIQQNLRTHCIDIYPQMCFDEDINDKILNSKLRDRIPFAVVGADQEHLVNGRCVLGRKTKWGIIEVENMAHCEFPLLRDLLIRSHLQDLKDITHNIHYENYRVIRLNESHLLPRGPGWVNLAPASPGQLTTPRTFKVCRGAHDDSDDEF [V222I]
disrupting interaction strength	MDPLRRSPSPCLSSQPSSPSTPPCEMLGPVGIEAVLDQLKIKAMKMGFEFNIMVVGQSGLGKSTMVNTLFKSKVWKSNPPGLGVPTPQTLQLHSLTHVIEEKGVKLKLTVTDTPGFGDQINNDNCWDPILGYINEQYEQYLQEEILITRQRHIPDTRVHCCVYFVPPTGHCLRPLDIEFLQRLCRTVNVVPVIARADSLTMEEREAFRRRIQRNLRTHCIDVYPQMCFDEDINDKILNSKLRDRIPFAVVGADQEHLVNGRCVLGRKTKWGIIEVENMAHCEFPLLRDLLIRSHLQDLKDITHNIHYENYRVIRLNESHLLPRGPGWVNLAPASPGQLTTPRTFKVCRGAHDDSDDEF [Q213R]

Variants of: B2
Details: with nav2_human NAV2, Q8IVL1
Sequence of nav2_human NAV2, Q8IVL1 (Q8IVL1 whole entry): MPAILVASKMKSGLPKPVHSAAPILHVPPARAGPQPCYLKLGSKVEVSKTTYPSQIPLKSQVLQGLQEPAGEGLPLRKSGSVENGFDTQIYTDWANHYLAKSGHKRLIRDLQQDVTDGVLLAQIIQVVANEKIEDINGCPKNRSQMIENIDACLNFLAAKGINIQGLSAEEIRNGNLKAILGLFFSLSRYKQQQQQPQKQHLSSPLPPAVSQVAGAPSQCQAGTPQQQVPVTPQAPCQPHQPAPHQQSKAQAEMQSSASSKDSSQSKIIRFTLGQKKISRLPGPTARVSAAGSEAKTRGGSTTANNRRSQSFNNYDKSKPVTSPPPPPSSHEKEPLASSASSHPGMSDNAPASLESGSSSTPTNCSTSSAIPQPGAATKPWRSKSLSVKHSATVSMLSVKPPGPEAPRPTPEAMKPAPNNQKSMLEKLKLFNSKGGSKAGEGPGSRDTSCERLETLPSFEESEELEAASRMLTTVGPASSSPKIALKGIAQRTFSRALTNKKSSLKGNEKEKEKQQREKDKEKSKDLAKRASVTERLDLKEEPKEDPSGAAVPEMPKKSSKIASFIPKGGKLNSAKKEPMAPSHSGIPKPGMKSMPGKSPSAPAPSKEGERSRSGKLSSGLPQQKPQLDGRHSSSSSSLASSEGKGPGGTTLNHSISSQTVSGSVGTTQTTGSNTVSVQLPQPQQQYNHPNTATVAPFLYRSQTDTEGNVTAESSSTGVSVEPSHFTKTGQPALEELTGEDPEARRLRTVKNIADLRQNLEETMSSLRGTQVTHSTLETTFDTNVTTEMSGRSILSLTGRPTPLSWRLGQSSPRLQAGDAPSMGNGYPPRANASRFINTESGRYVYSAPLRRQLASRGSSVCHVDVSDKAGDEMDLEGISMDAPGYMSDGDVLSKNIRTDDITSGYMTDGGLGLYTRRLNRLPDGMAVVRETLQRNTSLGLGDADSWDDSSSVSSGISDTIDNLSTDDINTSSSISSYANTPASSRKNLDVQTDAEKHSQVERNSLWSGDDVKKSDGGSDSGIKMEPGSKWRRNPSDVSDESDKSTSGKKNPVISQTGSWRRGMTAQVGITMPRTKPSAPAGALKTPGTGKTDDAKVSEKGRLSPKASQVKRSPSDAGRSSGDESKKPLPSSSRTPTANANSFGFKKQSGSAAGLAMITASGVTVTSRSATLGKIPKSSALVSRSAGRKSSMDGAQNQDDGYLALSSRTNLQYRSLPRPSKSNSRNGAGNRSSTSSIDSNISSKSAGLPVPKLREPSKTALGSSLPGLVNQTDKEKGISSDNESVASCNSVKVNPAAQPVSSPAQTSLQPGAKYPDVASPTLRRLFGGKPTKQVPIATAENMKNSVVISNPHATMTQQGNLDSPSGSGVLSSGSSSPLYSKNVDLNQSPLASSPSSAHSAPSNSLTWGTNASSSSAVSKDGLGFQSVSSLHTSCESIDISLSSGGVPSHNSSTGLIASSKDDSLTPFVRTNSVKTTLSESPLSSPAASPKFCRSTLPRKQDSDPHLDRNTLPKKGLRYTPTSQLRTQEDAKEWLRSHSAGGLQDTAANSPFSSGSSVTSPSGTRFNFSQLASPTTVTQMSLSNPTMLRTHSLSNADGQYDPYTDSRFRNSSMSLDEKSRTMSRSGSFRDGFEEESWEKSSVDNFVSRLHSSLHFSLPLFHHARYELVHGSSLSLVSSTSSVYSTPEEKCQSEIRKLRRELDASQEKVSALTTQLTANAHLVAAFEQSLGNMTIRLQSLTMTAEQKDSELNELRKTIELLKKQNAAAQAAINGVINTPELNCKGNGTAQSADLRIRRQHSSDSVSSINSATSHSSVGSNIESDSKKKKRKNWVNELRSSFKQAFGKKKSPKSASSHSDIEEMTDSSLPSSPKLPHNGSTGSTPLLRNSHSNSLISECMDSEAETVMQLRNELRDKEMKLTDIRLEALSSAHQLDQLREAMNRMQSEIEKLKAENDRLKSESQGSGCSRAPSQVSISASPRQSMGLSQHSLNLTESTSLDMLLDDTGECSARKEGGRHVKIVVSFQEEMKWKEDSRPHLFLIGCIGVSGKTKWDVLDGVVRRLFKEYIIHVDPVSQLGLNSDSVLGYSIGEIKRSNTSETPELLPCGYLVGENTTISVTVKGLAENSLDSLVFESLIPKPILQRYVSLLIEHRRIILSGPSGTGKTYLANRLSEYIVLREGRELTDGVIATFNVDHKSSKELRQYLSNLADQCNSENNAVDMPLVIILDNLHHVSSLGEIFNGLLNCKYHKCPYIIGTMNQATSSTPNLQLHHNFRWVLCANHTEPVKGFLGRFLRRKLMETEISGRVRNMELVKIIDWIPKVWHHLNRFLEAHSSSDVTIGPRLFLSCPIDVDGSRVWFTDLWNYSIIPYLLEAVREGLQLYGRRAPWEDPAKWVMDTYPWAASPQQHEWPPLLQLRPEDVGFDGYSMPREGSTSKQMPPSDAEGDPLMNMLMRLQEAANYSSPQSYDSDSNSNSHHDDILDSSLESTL

effect of a mutation on the interaction	Variant
disrupting interaction strength	R961Q

Variants of: B3
Details: with emd_human EMD

effect of a mutation on the interaction	Variant
with no effect	MTTSQKHRDFVTEPMGEKPVGSLAGIGEVLGKKLEERGFDKAYVVLGQFLVLKKDEDLFREWLKDTCGANAKQSRDCFGCLREWCDAFL

Variants of: B4
Details: with krt38_human KRT38, O76015

effect of a mutation on the interaction	Variant
with no effect	MASTSTTIRSHSSSRRGFSANSARLPGVSRSGFSSVSVSRSRGSGGLGGACGGAGFGSRSLYGLGGSKRISIGGGSCAISGGYGSRAGGSYGFGGAGSGFGFGGGAGIGFGLGGGAGLAGGFGGPGFPVCPPGGIQEVTVNQSLLTPLNLQIDSTIQRVRAEEREQIKTLNNKFASFIDKVRFLEQQNKVLETKWTLLQEQGTKTVRQNLEPLFEQYINNLRRQLDSIVGERGRLDSELRGMQDLVEDFKNKYEDEINKRTAAENEFVTLKKDVDAAYMNKVELQAKADTLTDEINFLRALYDAELSQMQTHISDTSVVLSMDNNRNLDLDSIIAEVKAQYEEIAQRSRAEAESWYQTKYEELQVTAGRHGDDLRNTKQEIAEINRMIQRLRSEIDHVKKQCANLQAAIADAEQRGEMALKDAKNKLEGLEDALQKAKQDLARLLKEYQELMNVKLALDVEIATYRKLLEGEECRLNGEGVGQVNISVVQSTVSSGYGGASGVGSGLGLGGGSSYSYGSGLGVGGGFSSSSGRAIGGGLSSVGGGSSTIKYTTTSSSSRKSYKH [P154S]
